The text below walks through data of patent publication US20100166772A1 (published 2010).

Assay [1] deals with ORF0657n on the cell surface of S. aureus (S. aureus, UniProt A5IS15 41-613). Nature of the assay: cell-based or functional assay.
Assay [2] has as its target T1, ORF0657n [255-342] (CNBr fragment of ORF0657t, SDS PAGE band 10) (S. aureus, UniProt A5IS15 255-342).
T1 construct: Limits as printed; also called 10 kDa band
T1 sequence: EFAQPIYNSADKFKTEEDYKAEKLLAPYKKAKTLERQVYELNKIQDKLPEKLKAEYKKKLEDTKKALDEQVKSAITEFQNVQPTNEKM
Nature of the assay: Western blot of CNBr fragments of ORF0657t, column Western negative, band 10. (In general: In western blotting, separated proteins are transferred to a membrane and probed.)

In assay [3] the target is T2, ORF0657n [397-486] (CNBr fragment of ORF0657t, SDS PAGE band 10) (S. aureus, UniProt A5IS15 397-486).
T2 construct: Limits as printed; also called 10 kDa band
Described as above.

Assay [4] deals with T3, ORF0657n [254-396] (CNBr fragment of ORF0657t, SDS PAGE band 8) (S. aureus, UniProt A5IS15 254-396).
T3 construct: Limits as printed; also called 16 kDa band
As to the kind of experiment: Western blot of CNBr fragments of ORF0657t, column Western negative, band 8.

Assay [5] addresses T4, ORF0657n [254-384] (CNBr fragment of ORF0657t, SDS PAGE band 8) (S. aureus, UniProt A5IS15 254-384).
T4 construct: Limits as printed; also called 16 kDa band
The assay is described as above.

In assay [6] the target is T5, ORF0657n [343-486] (CNBr fragment of ORF0657t, SDS PAGE band 8) (S. aureus, UniProt A5IS15 343-486).
T5 construct: Limits as printed; also called 16 kDa band
The assay is described as above.

Assay [7] addresses T6, ORF0657n [156-254] (CNBr fragment of ORF0657t, SDS PAGE bands 9 and 10) (S. aureus, UniProt A5IS15 156-254).
T6 construct: Limits as printed; also called 13 kDa band; 10 kDa band
T6 sequence: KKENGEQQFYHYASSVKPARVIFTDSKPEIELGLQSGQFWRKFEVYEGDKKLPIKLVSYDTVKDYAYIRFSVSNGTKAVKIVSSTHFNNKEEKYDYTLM
Nature of the assay: Western blot of CNBr fragments of ORF0657t, column Western negative, bands 9 and 10.

Assay [8] concerns the target T7, ORF0657n [255-486] (CNBr fragment of ORF0657t, SDS PAGE band 7) (S. aureus, UniProt A5IS15 255-486).
T7 construct: also called 26 kDa band
As to the kind of experiment: Western blot of CNBr fragments of ORF0657t, column Western negative, band 7.

Assay [9] concerns the target T8, ORF0657n [42-254] (CNBr fragment of ORF0657t, SDS PAGE band 7) (S. aureus, UniProt A5IS15 42-254).
T8 construct: also called 26 kDa band
T8 sequence: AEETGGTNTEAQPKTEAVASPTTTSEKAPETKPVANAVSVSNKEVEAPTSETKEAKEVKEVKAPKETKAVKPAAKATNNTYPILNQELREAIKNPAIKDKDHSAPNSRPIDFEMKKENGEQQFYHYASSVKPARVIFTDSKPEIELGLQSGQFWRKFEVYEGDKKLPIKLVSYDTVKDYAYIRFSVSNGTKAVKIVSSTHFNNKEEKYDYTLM
Described as above.

For assay [10], the target named is T9, ORF0657n [255-375] (CNBr fragment of ORF0657t, SDS PAGE band 9) (S. aureus, UniProt A5IS15 255-375).
T9 construct: Limits as printed; also called 13 kDa band
As to the kind of experiment: Western blot of CNBr fragments of ORF0657t, column Western negative, band 9.

For assay [11], the target named is T10, ORF0657n [375-486] (CNBr fragment of ORF0657t, SDS PAGE band 9) (S. aureus, UniProt A5IS15 375-486).
T10 construct: Limits as printed; also called 13 kDa band
The description is as above.

T4 sequence (A5IS15 254-384): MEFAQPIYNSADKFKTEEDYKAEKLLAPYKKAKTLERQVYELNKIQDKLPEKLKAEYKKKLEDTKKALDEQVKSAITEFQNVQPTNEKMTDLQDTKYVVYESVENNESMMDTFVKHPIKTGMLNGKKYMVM
T3 sequence (A5IS15 254-396): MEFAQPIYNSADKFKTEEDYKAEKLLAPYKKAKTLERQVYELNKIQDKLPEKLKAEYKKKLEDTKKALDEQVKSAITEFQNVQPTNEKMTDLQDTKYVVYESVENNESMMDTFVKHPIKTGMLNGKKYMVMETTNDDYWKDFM
T2 sequence (A5IS15 397-486): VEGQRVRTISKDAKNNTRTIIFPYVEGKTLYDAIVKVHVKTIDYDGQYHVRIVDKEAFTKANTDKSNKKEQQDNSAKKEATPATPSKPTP
Sequence of ORF0657n on the cell surface of S. aureus (A5IS15 41-613 limits assumed): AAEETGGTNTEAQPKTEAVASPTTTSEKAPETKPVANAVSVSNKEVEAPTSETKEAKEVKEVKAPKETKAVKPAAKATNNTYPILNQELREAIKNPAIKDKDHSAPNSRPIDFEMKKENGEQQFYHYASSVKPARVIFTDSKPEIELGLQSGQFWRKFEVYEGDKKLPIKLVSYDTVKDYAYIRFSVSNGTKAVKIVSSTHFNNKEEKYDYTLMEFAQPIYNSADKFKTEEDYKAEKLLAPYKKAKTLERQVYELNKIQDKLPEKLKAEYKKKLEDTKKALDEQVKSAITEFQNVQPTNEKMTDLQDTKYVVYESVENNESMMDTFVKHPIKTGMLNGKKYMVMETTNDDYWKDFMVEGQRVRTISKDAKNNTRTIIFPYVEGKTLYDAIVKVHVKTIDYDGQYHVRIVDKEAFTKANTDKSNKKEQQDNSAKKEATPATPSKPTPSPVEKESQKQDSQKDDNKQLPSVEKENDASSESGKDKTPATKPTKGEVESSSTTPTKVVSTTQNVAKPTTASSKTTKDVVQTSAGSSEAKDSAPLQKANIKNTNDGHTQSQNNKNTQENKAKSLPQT
T5 sequence (A5IS15 343-486): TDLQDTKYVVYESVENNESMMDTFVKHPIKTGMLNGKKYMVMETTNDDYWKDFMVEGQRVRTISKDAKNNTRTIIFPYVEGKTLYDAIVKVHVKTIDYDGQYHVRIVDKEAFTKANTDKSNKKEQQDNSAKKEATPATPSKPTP
T10 sequence (A5IS15 375-486): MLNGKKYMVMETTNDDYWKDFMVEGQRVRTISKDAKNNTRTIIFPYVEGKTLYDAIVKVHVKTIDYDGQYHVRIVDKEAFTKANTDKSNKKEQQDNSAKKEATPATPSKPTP

B1: mAb CS-D7 (antibody, human IgG1, kappa, V domains shown)
VH: QVQLQESGPGLVKPSETLSLTCTVSGGSIRSSSYYWGWFRQTPGKGLEWLGNVFFSGSAYYNPSLKNRVTISIDTSENQSSLKLTSVTAADTAVYYCARPQAYSHDSSGHSPFDLWGRGTLVTVSS
VL: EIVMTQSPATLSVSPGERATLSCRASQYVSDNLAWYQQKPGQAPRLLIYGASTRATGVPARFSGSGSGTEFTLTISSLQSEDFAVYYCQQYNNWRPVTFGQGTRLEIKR
notes: also called D7 IgG; full length IgG CS-D7
For the molecule B1, the “EC50 (read off the curve)” value in [1] is about 0.02 ug mAb. Moreover, the binding result in assay [2], in assay [3], in [4], in [5], in [6] and in assay [7] was “no binding” each time. The binding result in assay [8], in assay [9], in assay [10] and in assay [11] was “no binding” each time.
